From paper PMC13245411 come the findings set out here.

Common to all, as to assay: co-IP (anti-FLAG) in HEK293T cells, band intensity quantified
Common to all, as to details: parent: est. 1.0; read off a plot

The target in experiment [1] is human HA-tagged M1AP (UniProt Q8TC57).
Experiment [2] addresses human HA-tagged REDIC1 (UniProt Q86WS4).
For experiment [3], the target named is mouse HA-tagged M1AP (UniProt Q9Z0E1).
Experiment [4] has as its target mouse HA-tagged REDIC1 (UniProt A0A087WRU1).
Sequence of UniProt A0A087WRU1 (A0A087WRU1 whole entry): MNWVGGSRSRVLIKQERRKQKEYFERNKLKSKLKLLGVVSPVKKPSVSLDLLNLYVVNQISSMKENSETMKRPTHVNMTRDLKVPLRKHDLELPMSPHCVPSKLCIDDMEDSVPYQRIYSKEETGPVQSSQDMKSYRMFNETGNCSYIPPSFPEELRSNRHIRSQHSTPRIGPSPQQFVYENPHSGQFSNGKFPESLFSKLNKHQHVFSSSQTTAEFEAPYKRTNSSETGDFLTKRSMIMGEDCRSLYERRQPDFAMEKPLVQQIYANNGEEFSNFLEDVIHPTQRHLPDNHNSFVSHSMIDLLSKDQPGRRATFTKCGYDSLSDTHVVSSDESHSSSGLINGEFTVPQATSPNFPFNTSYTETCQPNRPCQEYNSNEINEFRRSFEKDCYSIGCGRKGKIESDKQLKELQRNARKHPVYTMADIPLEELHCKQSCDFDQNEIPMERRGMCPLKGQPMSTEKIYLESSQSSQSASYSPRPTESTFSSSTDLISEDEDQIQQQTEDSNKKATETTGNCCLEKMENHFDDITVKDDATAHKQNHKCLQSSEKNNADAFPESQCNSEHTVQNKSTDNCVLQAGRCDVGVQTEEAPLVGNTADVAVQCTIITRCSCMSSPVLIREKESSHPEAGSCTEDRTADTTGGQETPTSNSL

Sequence of UniProt Q86WS4 (Q86WS4 whole entry): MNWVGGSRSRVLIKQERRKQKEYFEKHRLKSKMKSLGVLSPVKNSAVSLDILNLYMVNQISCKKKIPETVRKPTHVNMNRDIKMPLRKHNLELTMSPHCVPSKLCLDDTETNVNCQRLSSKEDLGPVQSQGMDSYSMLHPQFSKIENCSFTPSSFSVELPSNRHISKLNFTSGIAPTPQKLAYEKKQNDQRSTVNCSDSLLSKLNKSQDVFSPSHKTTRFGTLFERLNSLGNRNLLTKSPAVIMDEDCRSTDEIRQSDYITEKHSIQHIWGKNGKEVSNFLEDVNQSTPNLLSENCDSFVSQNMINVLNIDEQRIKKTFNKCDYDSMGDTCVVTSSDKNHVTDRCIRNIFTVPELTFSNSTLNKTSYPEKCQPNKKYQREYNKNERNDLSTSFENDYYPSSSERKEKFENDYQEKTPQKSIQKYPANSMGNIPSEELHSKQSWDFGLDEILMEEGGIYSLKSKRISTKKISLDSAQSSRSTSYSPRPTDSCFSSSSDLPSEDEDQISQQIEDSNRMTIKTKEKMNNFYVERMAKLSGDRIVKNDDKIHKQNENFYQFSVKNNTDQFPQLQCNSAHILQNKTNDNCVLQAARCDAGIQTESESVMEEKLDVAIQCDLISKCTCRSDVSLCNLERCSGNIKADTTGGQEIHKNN
Sequence of UniProt Q9Z0E1 (Q9Z0E1 whole entry): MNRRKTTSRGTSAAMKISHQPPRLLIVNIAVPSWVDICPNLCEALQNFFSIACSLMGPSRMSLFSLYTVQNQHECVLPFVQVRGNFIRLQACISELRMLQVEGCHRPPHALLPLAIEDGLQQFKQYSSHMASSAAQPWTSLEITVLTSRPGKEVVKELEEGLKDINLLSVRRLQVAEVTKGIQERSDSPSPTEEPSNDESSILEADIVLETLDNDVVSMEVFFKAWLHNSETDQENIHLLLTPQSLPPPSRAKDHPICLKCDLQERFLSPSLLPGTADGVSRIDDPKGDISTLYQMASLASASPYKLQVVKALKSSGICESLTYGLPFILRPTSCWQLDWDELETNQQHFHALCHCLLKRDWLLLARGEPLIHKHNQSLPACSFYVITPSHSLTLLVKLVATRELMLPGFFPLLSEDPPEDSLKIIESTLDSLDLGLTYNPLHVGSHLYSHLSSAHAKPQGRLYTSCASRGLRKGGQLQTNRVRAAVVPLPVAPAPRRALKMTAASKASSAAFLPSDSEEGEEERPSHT
Sequence of UniProt Q8TC57 (Q8TC57 whole entry): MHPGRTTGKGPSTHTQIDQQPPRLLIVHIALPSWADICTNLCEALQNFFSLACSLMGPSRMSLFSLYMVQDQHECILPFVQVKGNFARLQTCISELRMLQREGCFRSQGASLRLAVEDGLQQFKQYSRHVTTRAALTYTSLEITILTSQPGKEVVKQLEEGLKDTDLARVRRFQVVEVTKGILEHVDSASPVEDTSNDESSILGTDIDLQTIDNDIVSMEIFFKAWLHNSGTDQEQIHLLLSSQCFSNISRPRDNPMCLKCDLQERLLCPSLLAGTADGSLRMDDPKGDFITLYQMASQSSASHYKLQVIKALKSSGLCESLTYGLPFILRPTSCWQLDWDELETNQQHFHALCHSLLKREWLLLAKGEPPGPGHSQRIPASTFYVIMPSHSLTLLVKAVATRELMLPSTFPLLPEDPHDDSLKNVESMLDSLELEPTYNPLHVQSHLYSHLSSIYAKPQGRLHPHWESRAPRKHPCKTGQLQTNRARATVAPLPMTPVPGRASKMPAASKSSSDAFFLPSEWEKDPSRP

human SHOC1-XPF (WT, FLAG-tagged) Q590R: the figures for the ratio to parent in experiment [1] and in experiment [2] were 0.44 and 1, respectively.

Consider mouse SHOC1-XPF (WT, FLAG-tagged) Q646R, for which the values for the ratio to parent in experiment [3] and in experiment [4] were 0.5 and 1.1, respectively.
